According to US7446182 (University of Texas, dated 2008):
Where “and” joins values, the source holds several entries; their conditions need not be identical. Identical values can stand only once.

Assays:
[1] = target: T1, Bacillus anthracis protective antigen (PA), 83 kDa polypeptide (Bacillus anthracis, UniProt P13423 30-764)
[2] = target: T1, Bacillus anthracis protective antigen …; remark: listed apart in the source
[3] = target: T1, Bacillus anthracis protective antigen …; remark: listed apart in the source

T1 sequence (P13423 30-764 limits assumed): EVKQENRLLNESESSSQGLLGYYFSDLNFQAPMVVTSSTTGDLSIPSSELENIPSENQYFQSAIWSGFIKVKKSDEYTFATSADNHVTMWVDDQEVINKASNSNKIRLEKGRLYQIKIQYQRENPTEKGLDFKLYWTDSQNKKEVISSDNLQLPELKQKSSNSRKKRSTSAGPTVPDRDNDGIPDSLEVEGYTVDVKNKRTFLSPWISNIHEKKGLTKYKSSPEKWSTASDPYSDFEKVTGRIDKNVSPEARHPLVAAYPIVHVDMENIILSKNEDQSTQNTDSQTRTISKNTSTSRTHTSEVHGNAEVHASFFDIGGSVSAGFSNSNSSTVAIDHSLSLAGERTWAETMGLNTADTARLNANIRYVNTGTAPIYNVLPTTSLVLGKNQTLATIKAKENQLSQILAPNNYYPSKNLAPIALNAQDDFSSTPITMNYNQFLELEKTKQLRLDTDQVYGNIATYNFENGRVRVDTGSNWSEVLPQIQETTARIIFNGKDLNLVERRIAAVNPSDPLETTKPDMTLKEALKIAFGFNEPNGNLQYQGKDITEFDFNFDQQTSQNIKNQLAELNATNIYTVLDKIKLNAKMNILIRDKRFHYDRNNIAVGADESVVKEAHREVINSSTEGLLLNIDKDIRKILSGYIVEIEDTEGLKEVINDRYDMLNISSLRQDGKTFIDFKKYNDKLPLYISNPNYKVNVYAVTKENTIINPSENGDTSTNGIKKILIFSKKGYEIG

B1: A2E scFv (scFv)
scFv: DIQMTQTTSSLSASLGDRVTISCRASQDIRNYLNWYQQKPDGTVKLLIYYTSRLQPGVPSRFSGSGSGTDYSLTISNQEQEDIGTYFCQQGNTLPWTGFFFTKLEIKRGGGGSGGGGSGGGGSGGGGSEVQLQQSGPELVKPGASVKISCKIDSGYAFSSSWMNWVKQRFGQGLEWIGRIYPGDGDTNYNGKFKGKATLTADKSSSTAYMQLSSLTSVDSAVYFCARSGLLRYAMDYWGQGTSVTVSS
[1]
  Kd: 4 nM
  koff: 0.001 s⁻¹
  kon: 300000 M⁻¹ s⁻¹
[2]
  EC50 (read off the curve): ~0.02 µg/mL and ~0.05 µg/mL
[3]
  fold higher affinity than the 14B7 scFv: 3 fold
  fold lower equilibrium dissociation constant than 14B7: 3 fold
